Assay results: publication PMC11741350

Columns and labels:
[1] = biological target: HA-RNF25 mutant lacking the Proline-Rich domain (human); experiment: co-IP
[2] = biological target: HA-RNF25 mutant lacking the RING+L+U5BR domains (human); experiment: co-IP

REV7, sequence (Q9UI95 whole entry): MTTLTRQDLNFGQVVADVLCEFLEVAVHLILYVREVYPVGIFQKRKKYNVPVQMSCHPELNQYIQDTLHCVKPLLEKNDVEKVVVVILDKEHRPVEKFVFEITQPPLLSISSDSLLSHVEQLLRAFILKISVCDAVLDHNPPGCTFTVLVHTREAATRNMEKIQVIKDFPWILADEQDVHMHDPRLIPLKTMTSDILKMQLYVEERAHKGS

With “REV7 (from UniProt Q9UI95 1-211) (natural protein)” the fold reduction of co-precipitated REV7 against wild-type HA-RNF25 [1] was 3.13 fold and the fold reduction of co-precipitated REV7 against wild-type HA-RNF25 [2] was 2.33 fold.
